Source: PMC4554459, “Paracoccus denitrificans possesses two BioR homologs having a role in regulation of biotin metabolism”

T1: BioR2 (Paracoccus denitrificans PD1222, UniProt A1B662 1-221)
T1 sequence: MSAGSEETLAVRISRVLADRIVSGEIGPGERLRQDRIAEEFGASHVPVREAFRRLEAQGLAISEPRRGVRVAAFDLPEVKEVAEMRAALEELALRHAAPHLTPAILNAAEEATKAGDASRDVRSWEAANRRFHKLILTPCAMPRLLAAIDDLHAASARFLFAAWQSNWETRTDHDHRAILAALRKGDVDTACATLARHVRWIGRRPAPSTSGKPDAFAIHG


What was measured:
BioR2 [1] = target: T1, BioR2; test: EMSA; ~0.2 pmol DIG-labeled probe with BioR (10-20 pmol BioR2 in 15 uL, Fig. 6) in Roche binding buffer, 15 min, room temperature; native 7% PAGE; salt and pH of binding buffer not stated (protein in PBS pH 7.4, 10% glycerol); details: protein: recombinant; tags: 6xHis (pET28a); chain copies: 2; label: digoxigenin; blunt
BioR2 [2] = target: T1, BioR2; test: EMSA; pimeloyl-ACP (no effect); ~0.2 pmol DIG-labeled probe with BioR (10-20 pmol BioR2 in 15 uL, Fig. 6) in Roche binding buffer, 15 min, room temperature; native 7% PAGE; salt and pH of binding buffer not stated (protein in PBS pH 7.4, 10% glycerol); details: protein: recombinant; tags: 6xHis (pET28a); chain copies: 2; label: digoxigenin; blunt
BioR2 [3] = target: T1, BioR2; test: competition; cold probe 10, 20, 50 pmol vs 0.2 pmol DIG-bioBFDAGC; ~0.2 pmol DIG-labeled probe with BioR (10-20 pmol BioR2 in 15 uL, Fig. 6) in Roche binding buffer, 15 min, room temperature; native 7% PAGE; salt and pH of binding buffer not stated (protein in PBS pH 7.4, 10% glycerol); details: protein: recombinant; tags: 6xHis (pET28a); chain copies: 2; blunt

| Binder | binding result (BioR2 [1]) | other results |
| --- | --- | --- |
| bioR1_pd probe (dsDNA) DNA 1: GGTGCAGCATGAATTATCTATAATTCATGAAACACG DNA 2: CGTGTTTCATGAATTATAGATAATTCATGCTGCACC | binds |  |
| bioBFDAZ_at (bioB_at) probe (dsDNA) DNA 1: CTCTCTTGAGGAGGCAAAAATTATCTATAATTTGCCATTTAACGACCTGC DNA 2: GCAGGTCGTTAAATGGCAAATTATAGATAATTTTTGCCTCCTCAAGAGAG | binds |  |
| bioBFDAGC_pd probe (dsDNA) DNA 1: GGCGCTGACCGTTTTATAGATACTTCCACATGAGGC DNA 2: GCCTCATGTGGAAGTATCTATAAAACGGTCAGCGCC |  | binding result (BioR2 [2]): binds |
| cold bioBFDAGC_pd probe (dsDNA) DNA 1: GGCGCTGACCGTTTTATAGATACTTCCACATGAGGC DNA 2: GCCTCATGTGGAAGTATCTATAAAACGGTCAGCGCC |  | binding result (BioR2 [3]): binds |
| bioYB_pd2 probe (dsDNA) DNA 1: CAAAGCCTTCGTAATTATAGATAGACTCGATACCTATC DNA 2: GATAGGTATCGAGTCTATCTATAATTACGAAGGCTTTG | binds |  |
| bioYB_pd1 probe (dsDNA) DNA 1: GATTCCCGGATAATTATCTATAAACCTAATTGCCAG DNA 2: CTGGCAATTAGGTTTATAGATAATTATCCGGGAATC | binds |  |
